Here are results for 16 molecules from patent publication US20260070987A1.

As a reminder, the Kd is the equilibrium constant for the complex coming apart.

First the molecules themselves.
B1: equine IgG1 Q311R (antibody, part only; not given: variable domains, not shown: another chain or arm of the molecule)
constant: ASTTAPKVFALAPGCGTTSDSTVALGCLVSGYFPEPVKVSWNSGSLTSGVHTFPSVLQSSGFYSLSSMVTVPASTWTSETYICNVVHAASNFKVDKRIEPIPDNHQKVCDMSKCPKCPAPELLGGPSVFIFPPNPKDTLMITRTPEVTCVVVDVSQENPDVKFNWYMDGVEVRTATTRPKEEQFNSTYRVVSVLRIQHRDWLSGKEFKCKVNNQALPQPIERTITKTKGRSQEPQVYVLAPHPDELSKSKVSVTCLVKDFYPPEINIEWQSNGQPELETKYSTTQAQQDSDGSYFLYSKLSVDRNRWQQGTTFTCGVMHEALHNHYTQKNVSKNPGK
B2: equine IgG1 D312A (antibody, part only; not given: variable domains, not shown: another chain or arm of the molecule)
constant: ASTTAPKVFALAPGCGTTSDSTVALGCLVSGYFPEPVKVSWNSGSLTSGVHTFPSVLQSSGFYSLSSMVTVPASTWTSETYICNVVHAASNFKVDKRIEPIPDNHQKVCDMSKCPKCPAPELLGGPSVFIFPPNPKDTLMITRTPEVTCVVVDVSQENPDVKFNWYMDGVEVRTATTRPKEEQFNSTYRVVSVLRIQHQAWLSGKEFKCKVNNQALPQPIERTITKTKGRSQEPQVYVLAPHPDELSKSKVSVTCLVKDFYPPEINIEWQSNGQPELETKYSTTQAQQDSDGSYFLYSKLSVDRNRWQQGTTFTCGVMHEALHNHYTQKNVSKNPGK
B3: equine IgG1 Q311W (antibody, part only; not given: variable domains, not shown: another chain or arm of the molecule)
constant: ASTTAPKVFALAPGCGTTSDSTVALGCLVSGYFPEPVKVSWNSGSLTSGVHTFPSVLQSSGFYSLSSMVTVPASTWTSETYICNVVHAASNFKVDKRIEPIPDNHQKVCDMSKCPKCPAPELLGGPSVFIFPPNPKDTLMITRTPEVTCVVVDVSQENPDVKFNWYMDGVEVRTATTRPKEEQFNSTYRVVSVLRIQHWDWLSGKEFKCKVNNQALPQPIERTITKTKGRSQEPQVYVLAPHPDELSKSKVSVTCLVKDFYPPEINIEWQSNGQPELETKYSTTQAQQDSDGSYFLYSKLSVDRNRWQQGTTFTCGVMHEALHNHYTQKNVSKNPGK
B4: equine IgG1 D312H (antibody, part only; not given: variable domains, not shown: another chain or arm of the molecule)
constant: ASTTAPKVFALAPGCGTTSDSTVALGCLVSGYFPEPVKVSWNSGSLTSGVHTFPSVLQSSGFYSLSSMVTVPASTWTSETYICNVVHAASNFKVDKRIEPIPDNHQKVCDMSKCPKCPAPELLGGPSVFIFPPNPKDTLMITRTPEVTCVVVDVSQENPDVKFNWYMDGVEVRTATTRPKEEQFNSTYRVVSVLRIQHQHWLSGKEFKCKVNNQALPQPIERTITKTKGRSQEPQVYVLAPHPDELSKSKVSVTCLVKDFYPPEINIEWQSNGQPELETKYSTTQAQQDSDGSYFLYSKLSVDRNRWQQGTTFTCGVMHEALHNHYTQKNVSKNPGK
B5: equine IgG1 M252L (antibody, part only; not given: variable domains, not shown: another chain or arm of the molecule)
constant: ASTTAPKVFALAPGCGTTSDSTVALGCLVSGYFPEPVKVSWNSGSLTSGVHTFPSVLQSSGFYSLSSMVTVPASTWTSETYICNVVHAASNFKVDKRIEPIPDNHQKVCDMSKCPKCPAPELLGGPSVFIFPPNPKDTLLITRTPEVTCVVVDVSQENPDVKFNWYMDGVEVRTATTRPKEEQFNSTYRVVSVLRIQHQDWLSGKEFKCKVNNQALPQPIERTITKTKGRSQEPQVYVLAPHPDELSKSKVSVTCLVKDFYPPEINIEWQSNGQPELETKYSTTQAQQDSDGSYFLYSKLSVDRNRWQQGTTFTCGVMHEALHNHYTQKNVSKNPGK
B6: equine IgG1 Q311V (antibody, part only; not given: variable domains, not shown: another chain or arm of the molecule)
constant: ASTTAPKVFALAPGCGTTSDSTVALGCLVSGYFPEPVKVSWNSGSLTSGVHTFPSVLQSSGFYSLSSMVTVPASTWTSETYICNVVHAASNFKVDKRIEPIPDNHQKVCDMSKCPKCPAPELLGGPSVFIFPPNPKDTLMITRTPEVTCVVVDVSQENPDVKFNWYMDGVEVRTATTRPKEEQFNSTYRVVSVLRIQHVDWLSGKEFKCKVNNQALPQPIERTITKTKGRSQEPQVYVLAPHPDELSKSKVSVTCLVKDFYPPEINIEWQSNGQPELETKYSTTQAQQDSDGSYFLYSKLSVDRNRWQQGTTFTCGVMHEALHNHYTQKNVSKNPGK
B7: equine IgG1 D312G (antibody, part only; not given: variable domains, not shown: another chain or arm of the molecule)
constant: ASTTAPKVFALAPGCGTTSDSTVALGCLVSGYFPEPVKVSWNSGSLTSGVHTFPSVLQSSGFYSLSSMVTVPASTWTSETYICNVVHAASNFKVDKRIEPIPDNHQKVCDMSKCPKCPAPELLGGPSVFIFPPNPKDTLMITRTPEVTCVVVDVSQENPDVKFNWYMDGVEVRTATTRPKEEQFNSTYRVVSVLRIQHQGWLSGKEFKCKVNNQALPQPIERTITKTKGRSQEPQVYVLAPHPDELSKSKVSVTCLVKDFYPPEINIEWQSNGQPELETKYSTTQAQQDSDGSYFLYSKLSVDRNRWQQGTTFTCGVMHEALHNHYTQKNVSKNPGK
B8: equine IgG1 Q311S (antibody, part only; not given: variable domains, not shown: another chain or arm of the molecule)
constant: ASTTAPKVFALAPGCGTTSDSTVALGCLVSGYFPEPVKVSWNSGSLTSGVHTFPSVLQSSGFYSLSSMVTVPASTWTSETYICNVVHAASNFKVDKRIEPIPDNHQKVCDMSKCPKCPAPELLGGPSVFIFPPNPKDTLMITRTPEVTCVVVDVSQENPDVKFNWYMDGVEVRTATTRPKEEQFNSTYRVVSVLRIQHSDWLSGKEFKCKVNNQALPQPIERTITKTKGRSQEPQVYVLAPHPDELSKSKVSVTCLVKDFYPPEINIEWQSNGQPELETKYSTTQAQQDSDGSYFLYSKLSVDRNRWQQGTTFTCGVMHEALHNHYTQKNVSKNPGK
B9: equine IgG1 D312E (antibody, part only; not given: variable domains, not shown: another chain or arm of the molecule)
constant: ASTTAPKVFALAPGCGTTSDSTVALGCLVSGYFPEPVKVSWNSGSLTSGVHTFPSVLQSSGFYSLSSMVTVPASTWTSETYICNVVHAASNFKVDKRIEPIPDNHQKVCDMSKCPKCPAPELLGGPSVFIFPPNPKDTLMITRTPEVTCVVVDVSQENPDVKFNWYMDGVEVRTATTRPKEEQFNSTYRVVSVLRIQHQEWLSGKEFKCKVNNQALPQPIERTITKTKGRSQEPQVYVLAPHPDELSKSKVSVTCLVKDFYPPEINIEWQSNGQPELETKYSTTQAQQDSDGSYFLYSKLSVDRNRWQQGTTFTCGVMHEALHNHYTQKNVSKNPGK
B10: equine IgG1 Q311Y (antibody, part only; not given: Variable domains, not shown: another chain or arm of the molecule)
constant: ASTTAPKVFALAPGCGTTSDSTVALGCLVSGYFPEPVKVSWNSGSLTSGVHTFPSVLQSSGFYSLSSMVTVPASTWTSETYICNVVHAASNFKVDKRIEPIPDNHQKVCDMSKCPKCPAPELLGGPSVFIFPPNPKDTLMITRTPEVTCVVVDVSQENPDVKFNWYMDGVEVRTATTRPKEEQFNSTYRVVSVLRIQHYDWLSGKEFKCKVNNQALPQPIERTITKTKGRSQEPQVYVLAPHPDELSKSKVSVTCLVKDFYPPEINIEWQSNGQPELETKYSTTQAQQDSDGSYFLYSKLSVDRNRWQQGTTFTCGVMHEALHNHYTQKNVSKNPGK
B11: equine IgG1 D312C (antibody, part only; not given: variable domains, not shown: another chain or arm of the molecule)
constant: ASTTAPKVFALAPGCGTTSDSTVALGCLVSGYFPEPVKVSWNSGSLTSGVHTFPSVLQSSGFYSLSSMVTVPASTWTSETYICNVVHAASNFKVDKRIEPIPDNHQKVCDMSKCPKCPAPELLGGPSVFIFPPNPKDTLMITRTPEVTCVVVDVSQENPDVKFNWYMDGVEVRTATTRPKEEQFNSTYRVVSVLRIQHQCWLSGKEFKCKVNNQALPQPIERTITKTKGRSQEPQVYVLAPHPDELSKSKVSVTCLVKDFYPPEINIEWQSNGQPELETKYSTTQAQQDSDGSYFLYSKLSVDRNRWQQGTTFTCGVMHEALHNHYTQKNVSKNPGK
B12: equine IgG1 D312K (antibody, part only; not given: variable domains, not shown: another chain or arm of the molecule)
constant: ASTTAPKVFALAPGCGTTSDSTVALGCLVSGYFPEPVKVSWNSGSLTSGVHTFPSVLQSSGFYSLSSMVTVPASTWTSETYICNVVHAASNFKVDKRIEPIPDNHQKVCDMSKCPKCPAPELLGGPSVFIFPPNPKDTLMITRTPEVTCVVVDVSQENPDVKFNWYMDGVEVRTATTRPKEEQFNSTYRVVSVLRIQHQKWLSGKEFKCKVNNQALPQPIERTITKTKGRSQEPQVYVLAPHPDELSKSKVSVTCLVKDFYPPEINIEWQSNGQPELETKYSTTQAQQDSDGSYFLYSKLSVDRNRWQQGTTFTCGVMHEALHNHYTQKNVSKNPGK
B13: equine IgG1 D312L (antibody, part only; not given: variable domains, not shown: another chain or arm of the molecule)
constant: ASTTAPKVFALAPGCGTTSDSTVALGCLVSGYFPEPVKVSWNSGSLTSGVHTFPSVLQSSGFYSLSSMVTVPASTWTSETYICNVVHAASNFKVDKRIEPIPDNHQKVCDMSKCPKCPAPELLGGPSVFIFPPNPKDTLMITRTPEVTCVVVDVSQENPDVKFNWYMDGVEVRTATTRPKEEQFNSTYRVVSVLRIQHQLWLSGKEFKCKVNNQALPQPIERTITKTKGRSQEPQVYVLAPHPDELSKSKVSVTCLVKDFYPPEINIEWQSNGQPELETKYSTTQAQQDSDGSYFLYSKLSVDRNRWQQGTTFTCGVMHEALHNHYTQKNVSKNPGK
B14: equine IgG1 Q311T (antibody, part only; not given: variable domains, not shown: another chain or arm of the molecule)
constant: ASTTAPKVFALAPGCGTTSDSTVALGCLVSGYFPEPVKVSWNSGSLTSGVHTFPSVLQSSGFYSLSSMVTVPASTWTSETYICNVVHAASNFKVDKRIEPIPDNHQKVCDMSKCPKCPAPELLGGPSVFIFPPNPKDTLMITRTPEVTCVVVDVSQENPDVKFNWYMDGVEVRTATTRPKEEQFNSTYRVVSVLRIQHTDWLSGKEFKCKVNNQALPQPIERTITKTKGRSQEPQVYVLAPHPDELSKSKVSVTCLVKDFYPPEINIEWQSNGQPELETKYSTTQAQQDSDGSYFLYSKLSVDRNRWQQGTTFTCGVMHEALHNHYTQKNVSKNPGK
B15: equine IgG1 M252K (antibody, part only; not given: variable domains, not shown: another chain or arm of the molecule)
constant: ASTTAPKVFALAPGCGTTSDSTVALGCLVSGYFPEPVKVSWNSGSLTSGVHTFPSVLQSSGFYSLSSMVTVPASTWTSETYICNVVHAASNFKVDKRIEPIPDNHQKVCDMSKCPKCPAPELLGGPSVFIFPPNPKDTLKITRTPEVTCVVVDVSQENPDVKFNWYMDGVEVRTATTRPKEEQFNSTYRVVSVLRIQHQDWLSGKEFKCKVNNQALPQPIERTITKTKGRSQEPQVYVLAPHPDELSKSKVSVTCLVKDFYPPEINIEWQSNGQPELETKYSTTQAQQDSDGSYFLYSKLSVDRNRWQQGTTFTCGVMHEALHNHYTQKNVSKNPGK
B16: equine IgG1 D312F (antibody, part only; not given: Variable domains, not shown: another chain or arm of the molecule)
constant: ASTTAPKVFALAPGCGTTSDSTVALGCLVSGYFPEPVKVSWNSGSLTSGVHTFPSVLQSSGFYSLSSMVTVPASTWTSETYICNVVHAASNFKVDKRIEPIPDNHQKVCDMSKCPKCPAPELLGGPSVFIFPPNPKDTLMITRTPEVTCVVVDVSQENPDVKFNWYMDGVEVRTATTRPKEEQFNSTYRVVSVLRIQHQFWLSGKEFKCKVNNQALPQPIERTITKTKGRSQEPQVYVLAPHPDELSKSKVSVTCLVKDFYPPEINIEWQSNGQPELETKYSTTQAQQDSDGSYFLYSKLSVDRNRWQQGTTFTCGVMHEALHNHYTQKNVSKNPGK

The target of this assay is equine FcRn (large alpha subunit p51) / equine beta-2-microglobulin complex, biotinylated (equine) (UniProt P30441). As to the kind of experiment: SPR (Biacore), pH 6. In general terms: Surface plasmon resonance follows binding to a sensor surface in real time, without labels.
UniProt P30441, sequence (P30441 21-118, one chain of several): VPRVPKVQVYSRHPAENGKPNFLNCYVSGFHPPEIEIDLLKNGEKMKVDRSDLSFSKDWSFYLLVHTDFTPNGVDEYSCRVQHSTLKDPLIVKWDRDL
B1 registered a dissociation constant (Kd) of 10.1 nM.

Regarding B2, the Kd came out at 9.86 nM.

For the molecule B3, the Kd was 21.2 nM.

For B4, the Kd was found to be 17.1 nM.

Consider B5, for which the dissociation constant Kd was found to be 101 nM.

Turning to B6, the dissociation constant (Kd) is 16.3 nM.

B7: the Kd was 16.2 nM.

As for B8, the Kd was determined as 24.4 nM.

The molecule B9 gave a Kd of 25.2 nM.

For B10, the equilibrium dissociation constant (Kd) was 21.2 nM.

In turn, B11 showed a Kd of 21 nM.

Consider B12, for which the dissociation constant Kd amounted to 15.8 nM.

For the molecule B13, the Kd was 24.6 nM.

The molecule B14 had a Kd of 17.4 nM.

Regarding B15, the dissociation constant Kd is 36.7 nM.

Molecule B16 yielded a Kd of 17.8 nM.
